Experimental data taken from publication PMC10648141, “Screening of Oral Potential Angiotensin-Converting Enzyme Inhibitory Peptides from Zizyphus jujuba Proteins Based on Gastrointestinal Digestion In Vivo” (International Journal of Molecular Sciences, 2023).
“And” between values parts separate entries of the source, which are not always exact repeats. Identical values can stand only once. Residues, ends and D or L forms follow the SMILES beside them. No end group written: not given here.

Molecular target: T1, ACE (Homo sapiens, UniProt P12821)
T1 construct: purchased Sigma-Aldrich
Assay: not given
Parameters: method as in our group and the DFBP database
Conditions: ACE-inhibitory activity used as 3D-QSAR input (training set 34, test set 12 marked *); ref our group and the DFBP database; cited from earlier work

T1 sequence (P12821 30-1306, species assumed): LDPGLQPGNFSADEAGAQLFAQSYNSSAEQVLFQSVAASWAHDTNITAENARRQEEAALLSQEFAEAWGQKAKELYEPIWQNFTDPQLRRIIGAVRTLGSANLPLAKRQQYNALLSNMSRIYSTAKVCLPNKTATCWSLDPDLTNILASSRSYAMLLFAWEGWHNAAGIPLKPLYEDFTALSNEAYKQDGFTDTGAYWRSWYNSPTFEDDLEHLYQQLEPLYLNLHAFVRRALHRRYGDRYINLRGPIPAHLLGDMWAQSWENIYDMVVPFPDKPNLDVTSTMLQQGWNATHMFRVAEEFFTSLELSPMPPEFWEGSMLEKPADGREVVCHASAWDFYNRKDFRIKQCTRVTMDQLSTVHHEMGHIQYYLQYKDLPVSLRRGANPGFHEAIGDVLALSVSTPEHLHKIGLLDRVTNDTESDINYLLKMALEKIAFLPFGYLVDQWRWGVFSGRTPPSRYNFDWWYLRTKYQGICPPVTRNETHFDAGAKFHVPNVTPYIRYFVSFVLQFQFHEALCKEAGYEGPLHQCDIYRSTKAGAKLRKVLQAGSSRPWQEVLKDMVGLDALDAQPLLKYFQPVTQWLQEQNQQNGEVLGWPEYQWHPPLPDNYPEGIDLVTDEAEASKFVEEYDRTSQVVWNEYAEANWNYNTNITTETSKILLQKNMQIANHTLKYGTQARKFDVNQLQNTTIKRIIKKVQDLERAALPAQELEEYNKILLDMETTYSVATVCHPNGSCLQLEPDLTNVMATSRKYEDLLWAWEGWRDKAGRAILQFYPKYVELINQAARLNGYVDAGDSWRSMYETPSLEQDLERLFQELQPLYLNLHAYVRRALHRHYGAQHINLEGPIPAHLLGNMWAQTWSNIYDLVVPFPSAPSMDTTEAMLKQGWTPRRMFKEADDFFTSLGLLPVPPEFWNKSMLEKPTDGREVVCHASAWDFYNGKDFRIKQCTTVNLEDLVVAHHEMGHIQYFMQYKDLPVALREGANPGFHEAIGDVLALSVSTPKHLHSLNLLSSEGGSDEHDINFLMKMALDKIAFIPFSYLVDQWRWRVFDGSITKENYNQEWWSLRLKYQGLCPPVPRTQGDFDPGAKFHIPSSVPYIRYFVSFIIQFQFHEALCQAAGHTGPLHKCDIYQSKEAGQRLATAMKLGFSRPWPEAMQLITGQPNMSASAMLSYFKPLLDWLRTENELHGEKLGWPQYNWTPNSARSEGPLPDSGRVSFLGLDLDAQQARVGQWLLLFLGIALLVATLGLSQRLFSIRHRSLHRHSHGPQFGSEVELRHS

Point of comparison: “TFQGPPHGIQVER [ACEI peptide, 3D-QSAR training set]”, PIC50 -0.53. Against it:
- ADGLWL [ACEI peptide, 3D-QSAR training set] — lower, -2.45
- AHSVRF [ACEI peptide, 3D-QSAR test set] — lower, -1.26
- AHSVRFY [ACEI peptide, 3D-QSAR test set] — lower, -1.21
- Ala-His-Ser-Val (AHSV) [ACEI peptide, 3D-QSAR training set] — lower, -3.26
- Asp-Phe-Gly [ACEI peptide, 3D-QSAR training set] — lower, -1.65
- CCNKSV (cysteine pairing not given here) [ACEI peptide, 3D-QSAR test set] — lower, -1.18
- Cys-Cys-Asn-Lys (CCNK) [ACEI peptide, 3D-QSAR training set] — lower, -0.95
- FCLYELAR [ACEI peptide, 3D-QSAR training set] — lower, -1.50
- FPEVFGK [ACEI peptide, 3D-QSAR training set] — lower, -2.15
- FQKVVAK [ACEI peptide, 3D-QSAR test set] — higher, -0.32
- GIPLPLI [ACEI peptide, 3D-QSAR training set] — lower, -1.87
- GKDAVIV [ACEI peptide, 3D-QSAR training set] — lower, -1.26
- GRVSNCAA [ACEI peptide, 3D-QSAR training set] — lower, -1.76
- GYALPHA [ACEI peptide, 3D-QSAR training set] — lower, -1.44
- Gln-Val-Gly-Pro (QVGP) [ACEI peptide, 3D-QSAR training set] — lower, -2.21
- His-Cys-His-Thr (HCHT) [ACEI peptide, 3D-QSAR training set] — lower, -2.06
- His-Cys-His-Thr-Asn (HCHTN) [ACEI peptide, 3D-QSAR test set] — lower, -1.48
- IGPGLGR [ACEI peptide, 3D-QSAR training set] — lower, -2.32
- IIAPPER [ACEI peptide, 3D-QSAR training set] — lower, -0.94
- KVREGTTY [ACEI peptide, 3D-QSAR training set] — lower, -2.01
- LGPLGHQ [ACEI peptide, 3D-QSAR training set] — lower, -0.63
- LHPGDAQR [ACEI peptide, 3D-QSAR training set] — lower, -1.01
- LPGVLPVA [ACEI peptide, 3D-QSAR test set] — higher, 0.11
- LPQNILP [ACEI peptide, 3D-QSAR test set] — lower, -1.66
- LVLPGE [ACEI hexapeptide of the authors' previous studies; alignment template, training set] — lower, -1.13
- LVLPGELAK [ACEI peptide, 3D-QSAR training set] — lower, -2.26
- Leu-Ala-Lys [ACEI peptide, 3D-QSAR test set] — lower, -1.68
- Leu-Gln-Lys-Trp (LQKW) [ACEI peptide, 3D-QSAR test set] — lower, -1.54
- Leu-Phe-Arg-Gln (LFRQ) [ACEI peptide, 3D-QSAR test set] — lower, -1.23
- Leu-Val-Leu [ACEI peptide, 3D-QSAR training set] — lower, -1.09
- Lys-Ser-Val [ACEI peptide, 3D-QSAR training set] — lower, -3.01
- NMAINPSK [ACEI peptide, 3D-QSAR training set] — lower, -1.78
- PANIKWGD [ACEI peptide, 3D-QSAR training set] — lower, -1.32
- PTHIKWGD [ACEI peptide, 3D-QSAR training set] — higher, -0.18
- Phe-Pro-Gln-Tyr (FPQY) [ACEI peptide, 3D-QSAR training set] — lower, -2.48
- Pro-Ser-Phe-Gln-Pro (PSFQP) [ACEI peptide, 3D-QSAR training set] — lower, -1.86
- Ser-Leu-Pro-Gln-Asn (SLPQN) [ACEI peptide, 3D-QSAR training set] — lower, -0.98
- TYLPVH [ACEI peptide, 3D-QSAR test set] — higher, -0.14
- Tyr-Pro-Gly [ACEI peptide, 3D-QSAR training set] — lower, -1.37
- Tyr-Thr-Val-Phe (YTVF) [ACEI peptide, 3D-QSAR training set] — lower, -1.94
- Val-His-Leu-Pro-Pro (VHLPP) [ACEI peptide, 3D-QSAR test set] — lower, -1.26
- Val-Leu-Pro-Tyr-Pro (VLPYP) [ACEI peptide, 3D-QSAR training set] — lower, -1.56
- YETGNGIK [ACEI peptide, 3D-QSAR training set] — lower, -0.57

System: not listed separately
Assay: Stability of peptides after simulated gastrointestinal digestion in vitro
Format: in vitro ADME
Conditions: pepsin (1000 U/mL) and pancreatin (50 U/mL); peptide 0.5 mg/mL; LC-MS (Q Exactive, ESI positive); peak area after/before digestion × 100
Protocol: The stability in vitro digestion followed the method we reported previously with minor modifications. Pepsin (1000 U/mL) and pancreatin (50 U/mL) were used to digest the peptide (0.5 mg/mL). A Q Exactive system (Thermo Fisher Scientific, USA) equipped with ESI in positive ion mode was used for mass spectrometric detection. Stability %=Peak area after digestion sample/Peak area before digestion sample×100%

Point of comparison: RLPHV [RLPHV], “Simulated Gastrointestinal Digestion Stability %” value 82%. Against it:
- KALVAP [KALVAP] — lower, 78%
- TVKPGL [TVKPGL] — higher, 90%

Molecular target: T1, ACE
Assay: ACE-inhibitory activity assay in vitro (HHL substrate, hippuric acid by HPLC)
Format: biochemical
Conditions: 1 h, pH 8.3, read-out: ACE Inhibition Rate (%) (2 mg/mL)
Protocol: The method used to determine ACE-inhibitory activity was designed according to that of Sangsawad et al. with minor modifications. […] The reaction mixture comprised 50 μL of peptide and 50 μL of ACE (25 mU/mL), undergoing pre-incubation for 5 min at 37 °C. Subsequently, 150 μL of substrate (8.3 mM HHL in 0.1 M Tris-HCl buffer with 500 mM NaCl at pH 8.3) was introduced, and the sample was further incubated at 37 °C for 60 min. Following the completion of the reaction, it was terminated via the addition of 1 M HCl. […] IC50 was used to express the activity of hydrolysate; all analyses were carried out under five different concentrations in triplicate.

CC(C)C[C@H](NC(=O)[C@H](Cc1c[nH]cn1)NC(=O)[C@H](CC(C)C)NC(=O)[C@@H](N)Cc1ccc(O)cc1)C(=O)O [YLHL] (H-YLHL-OH) showed an inhibition at 2000 µg/mL of 65.4%.

Same assay, conditions: 1 h; peptide 2 mg/mL; HHL substrate, pH 8.3, 37 °C, 60 min; HPLC of hippuric acid; read-out: ACE Inhibition Rate (%) (2 mg/mL)

Point of comparison: N=C(N)NCCC[C@H](NC(=O)[C@H](CCC(=O)O)NC(=O)[C@@H]1CCCN1)C(=O)N[C@@H](CCCCN)C(=O)O [PERK] (H-PERK-OH), inhibition at 2000 µg/mL 4.5%. Against it:
- N=C(N)NCCC[C@H](NC(=O)[C@@H]1CCCN1C(=O)[C@H](Cc1ccccc1)NC(=O)[C@@H](N)CCCNC(=N)N)C(=O)O [RFPR] (H-RFPR-OH) — higher, 22.9%
- KALVAP [KALVAP] — higher, 100%
- KVKPL [KVKPL] — lower, -14.2%
- LEKLVT [LEKLVT] — higher, 30.5%
- LEKPLL [LEKPLL] — higher, 24.2%
- PRPKPPP [PRPKPPP] — higher, 74.8%
- RLPHV [RLPHV] — higher, 100%
- TVKPGL [TVKPGL] — higher, 100%

Same assay, conditions: HHL substrate, pH 8.3, 37 °C, 60 min; HPLC of hippuric acid; five concentrations in triplicate

KALVAP [KALVAP] showed an IC50 of 17.1 µM.

With RLPHV [RLPHV] the IC50 was 3.81 µM and 6.01 µM.
With TVKPGL [TVKPGL] the IC50 was 6.01 µM and 3.81 µM.
